The RNAGym collection of RNA variant scans (doi:10.7554/elife.90254)

B1: LINE1-full (parent)
chain: UACGUAGGUGGUUUUCCCCUGAUAGUGCUAAGGGGGCCUGGAAGUUUGGACUGGGCAGAGCUCAACACAGCGUGGCAAAGUGGCUGUGGCUAGACUGCCUCUCUGGAUUCCUCGUCACUCAGCAGGGCAUCUCUGAGAGAAAUGCC

Variants of: B1
Assay: self-cleavage, relative activity (ratio to wild type); higher = more cleavage; in vitro, sequencing; the parent is a self-cleaving ribozyme

Point of comparison: UACGUAGGUGGUUUUCCCCUGAUAGCGCUAAGGGGGCCUGGAAGUUUGGACUGGGCAGAGCUCAACACAGCGUGGCAAAGUGGCUGUGGCUAGACUGCCUCUCUGGAUUCCCCGUCACUCAGCAGGGCAUCUCUGAGAGAAAUGCC [U26C U112C], self-cleavage 1.36. Against it:
- UACGUAGGUGGUUUUCCCCUGAUAGUGCUAAGGGGGCCUGGAAGUUUGGACUGGGCAGAGCUCAUCACAGCGUGGCAAAGUGGCUGUGGCUAGACUGCCUCUCUGGAUUCCUCGUCACUCAGCAGGACAUCUCUGAGAGAAAUGCC [A65U G127A] — lower, 0.68
- UACGUAGGUGGUUUUCCCCUGAUAGUGCUAAGGGGGCCUGGAAGUUUGGACUGGGCGGAGCUCAACACAGCGUGGCAAAGUGGCUGUGGCUAGACUGCCUCUCCGGAUUCCUCGUCACUCAGCAGGGCAUCUCUGAGAGAAAUGCC [A57G U104C] — lower, 1.11
- UACGUAGGUGGUUUUCCCCUGAUAGUGCCAAGGGGGCCUGGAAGUUUGGACUGGGCAGAGCUCAACACAGCGUGGCAAAGUGGCUGUGGCUAGACUGCCUCUCUGGAUUCCUCGCCACUCAGCAGGGCAUCUCUGAGAGAAAUGCC [U29C U115C] — higher, 1.75
- UACGUAGGUGGUUUUCCCCUGGUAGUGCUAAGGGGGCCUGGAAGUUUGGACUGGGCAGAGCUCAACACAGCGUGGCAAAGUGGCUGUGGCUAGACUGCCUCUCUGGAUUUCUCGUCACUCAGCAGGGCAUCUCUGAGAGAAAUGCC [A22G C110U] — lower, 0.92
- UACGUAGGUGGUUUUCCCCUGAUAGUGCUAAGGGGGCCUGGAAGUGUGGACUGGGCAGAGCUCAACACAGCGUGGCAAAGUGGCUGUGGCUAGACUGCCUCUCUGGAUUCCUCGCCACUCAGCAGGGCAUCUCUGAGAGAAAUGCC [U46G U115C] — higher, 1.69
- UACGUAGGUGGUUUUCACCUGAUAGUGCUAAGGGGGCCUGGAAGUUUGGACUGGGCAGUGCUCAACACAGCGUGGCAAAGUGGCUGUGGCUAGACUGCCUCUCUGGAUUCCUCGUCACUCAGCAGGGCAUCUCUGAGAGAAAUGCC [C17A A59U] — lower, 0.69
- UACGUAGGUGGUUUUCCCCUGAUAGUGCUAAGGGGGCCUGGAAGUUUGGACUGGGCGGAGCUCAACACAGCGUGGCAAAGUGGCUGUGGCUAGACUGCCUCUCUGGAUUCCUCGUCACUCAGCAGGGCAUCUCUGAGAGUAAUGCC [A57G A140U] — lower, 1.05
- UACGUAGGUGGUUUUCCCCUGAUAGUGCUAAGGGGGCCUGGAAGUUUGGACUGGGCAGAGCUCAACGCAGCGUGGCAAAGUGGCUGUGGCUAGACUGCCUCUCUGGAUUCCUCGGCACUCAGCAGGGCAUCUCUGAGAGAAAUGCC [A67G U115G] — lower, 1.22
- UACGUAGGUGGCUUUCCCCUGAUAGUGCUAAGGGGGCCUGGAAGUUUGGACUGGGCAGAGCUCAACACAGCGUGGCAAAGUAGCUGUGGCUAGACUGCCUCUCUGGAUUCCUCGUCACUCAGCAGGGCAUCUCUGAGAGAAAUGCC [U12C G82A] — higher, 1.68
- UACGUAGGUGGUCUUCCCCUGAUAGUGCUAAGGGGGCCUGGAAGUUUGGACUGGGCAGAGCUCAACACAGCGUGGCAAAGUGGCUGUGGCAAGACUGCCUCUCUGGAUUCCUCGUCACUCAGCAGGGCAUCUCUGAGAGAAAUGCC [U13C U91A] — lower, 0.85
- UACGUAGGUGGUUUUCCCCUGAUAGUGCUAAGUGGGCCUGGAAGUUUGGACUGGGCAGAGCUCAACACAGCGUGGCAAAGUGGCUGUGGCUAGACCGCCUCUCUGGAUUCCUCGUCACUCAGCAGGGCAUCUCUGAGAGAAAUGCC [G33U U96C] — lower, 0.17
- UACGUAGGUGGUUUUCCCCUGAUAGUGCUAAAGGGGCCUGGAAGUUUGGACUGGUCAGAGCUCAACACAGCGUGGCAAAGUGGCUGUGGCUAGACUGCCUCUCUGGAUUCCUCGUCACUCAGCAGGGCAUCUCUGAGAGAAAUGCC [G32A G55U] — lower, 0.32
- UACGUAGGUGGUUUUCCCCUGAUAGUGCUAAGGGGGCCUGGUAGUUUGGACUGGGCAGAGCUCAACACAGCGUGGCAAAGUGGCUGUGGCUAGACUGCCUCUCUGGAUUCCUCGUCACUCAGCAGGGCAUCUCUGAGAGAAACGCC [A42U U143C] — lower, 0.94
- UACGUAGGUGGUUUUCCCCUGAUAGUGCUAAGGGGGCCUGGAAGUUUGGACUGGGCAGAGCUCGACACAGCGUGGCAAAGUGGCUGUGGCUAGACUGCCUCUCUGGAUUCCUCGCCACUCAGCAGGGCAUCUCUGAGAGAAAUGCC [A64G U115C] — lower, 0.27
- UACGUAGGUGGUUUUCCCCUGAUAGUGCUAAGGGGGCCUGGAAGUUUGGACUGGGCAGAGCUCAACACAGCGUGGCAAAGUGGCUGUGGCUAGAUUGCCUCUCUGGAUUCCUCGUCGCUCAGCAGGGCAUCUCUGAGAGAAAUGCC [C95U A117G] — lower, 0.14
- UACGUAGGUGGUUUUCCCCUGAUAGCGCUAAGGGGGCCUGGAAGUUUGGACUGGGCAGAGCUCAACACAGCGUGGCAAAGUGGCUGUGGCUAGACUGCCUCUCUGGAUUCCUCGUCACUCAGCAGGGCAUCUCUGAGAGAAAUGCC [U26C] — lower, 1.24
- UACGUAGGUGGUUUUCCCCUGAUUGUGCUAAGGGGGCCUGGAAGUUUGGACUGGGCAGAGCUCAACACAGCGUGGCAAAGUGGCUGUGGCUAGACUGCCUCUCUGGAUUCCUCGUCACUCAGCAGGGCGUCUCUGAGAGAAAUGCC [A24U A129G] — lower, 0.75
- UACGUAGGUGGUUUCCCCCUGAUAGUGCUAAGGGGGCCUGGAAGUUUGGACUGGGCAGAGCUCAACACAGCGUGGCAAAGUGGCUGUGGCUAGACUGCCUCUCUGGAUUCCUCGUCUCUCAGCAGGGCAUCUCUGAGAGAAAUGCC [U15C A117U] — higher, 1.58
- UACGUAGGUGGUUUUCCCCUGAUAGUGCUAAGGGGGGCUGGAAGUUUGGACUGGGCAGAGCUCAACACAGCGUGGCAAAGUGGCUGUGGCUAGACUGCCUCUCUGGAUUCCUCGUCACUCAGCAGGGCAUCACUGAGAGAAAUGCC [C37G U132A] — lower, 1.23
- UACGCAGGUGGUUUUCCCCUGAUAGUGCUAAGGGGGCAUGGAAGUUUGGACUGGGCAGAGCUCAACACAGCGUGGCAAAGUGGCUGUGGCUAGACUGCCUCUCUGGAUUCCUCGUCACUCAGCAGGGCAUCUCUGAGAGAAAUGCC [U5C C38A] — higher, 1.79
- UACGUAGGUGGUUUUCCCCUGAUAGUGCUAAGGGGGCCUGGAAGUUUGGACUGGGCAGAGCUCAACACAGCGUGGCAAAGUGGCUGUGGCUAGACUGCCUCUCUGGAUUCCUCGUCACUCAGCAGGGCAUCUCUGAGCGAAAUGCC [A138C] — lower, 0.76
- UACGUAGGUGGUUUUCCCCUGAUAGUGCUAAGGGGGCCUGGAAGUUUGGACUGGGCAGAGCUCAACACAGCGUGGCAAAGUGGCUGUGGCUAGACUGCCUCUCUGUACUCCUCGUCACUCAGCAGGGCAUCUCUGAGAGAAAUGCC [G106U U108C] — lower, 1.32
- UACGCAGGUGGUUUUCCCCUGAUAGUGCUAAGGGGGCCUGGAAGUUUGGACUGGGCAGAGCUCAGCACAGCGUGGCAAAGUGGCUGUGGCUAGACUGCCUCUCUGGAUUCCUCGUCACUCAGCAGGGCAUCUCUGAGAGAAAUGCC [U5C A65G] — lower, 0.15
- UACGUAGGUGGUUUUCCCCUGAUAGUGCUAAGGGGGCCUGGAAGGUUGGACUGGGCAGAGCUCAACACAGCGUGGCAAAGUGGCUGUAGCUAGACUGCCUCUCUGGAUUCCUCGUCACUCAGCAGGGCAUCUCUGAGAGAAAUGCC [U45G G88A] — lower, 0.06
- UGCGUAGGUGGUUUUCCCCUGAUAGUACUAAGGGGGCCUGGAAGUUUGGACUGGGCAGAGCUCAACACAGCGUGGCAAAGUGGCUGUGGCUAGACUGCCUCUCUGGAUUCCUCGUCACUCAGCAGGGCAUCUCUGAGAGAAAUGCC [A2G G27A] — lower, 0.19
- UACGUAGGUGGUUUUCCCCUGAUAGUGCUAAGGGGGCCUGGAUGUUUGGACUGGGCAGAGCUCAACACAGCGUGGCAAAGUGGCUGUGGCUAGACUGCCUCUCUGGACUCCUCGUCACUCAGCAGGGCAUCUCUGAGAGAAAUGCC [A43U U108C] — lower, 1.08
- UACGUAGGUGGUUUUCCCCUGAUAGUGCUAAGGGGGCCUGGAAGUUUGGACUGGGCAGAGCUCUACACAGCGUGGCAAAGUGGCUGUGGCUAGACUGCCUCUCUGGGUUCCUCGUCACUCAGCAGGGCAUCUCUGAGAGAAAUGCC [A64U A107G] — lower, 0.45
- UACGUAGGUGGUUUUCCCCUGAUAGUGCUAAGGGGGCCUGGAAGUUUGGACUGGGCAGAGCUCAACACAGCGUGGCAAUGUGGCUGUGGCUAGACUGCCUCUCUGGAUUCCUCGUCACUCAGCGGGGCAUCUCUGAGAGAAAUGCC [A79U A124G] — lower, 0.87
- UACGUAGGUGGUUUUCCCCUGAUAGUGCUAAGGGGGCCUGGAAGUUUGGACUGGGCAGAGUUCAACACAGCGUGGCAAAGUGGCUGUGGCUAGACUGCCUCUCUGGAUUCCUCGUCACUCAGCAGGGCUUCUCUGAGAGAAAUGCC [C61U A129U] — lower, 0.02
- UACGUAGGUGGUUUUCCCCCGAUAGUGCUAAGGGGGCCUGGAAGUUUGGACUGGGCAGAGCUCAACACAGCGUGGCAAAGUGGCUGUGGCUAGACUGCCUCUCUGGAUUCCUCGUCACUCAGCAGGGCAGCUCUGAGAGAAAUGCC [U20C U130G] — higher, 1.63
- UACGUAGGUGGUUUUCCCCUGAUAGUGCUAAGGGGGCCUGGAAGUUUGGACUGGGCAGAGCUCAACACAGCGUGGCAAAGUGGCUGGGGCUAGACUGCCUCUCUGGAUUCCUCGUCACUCAGCAGGGCAUCUCUGAGAGAAACGCC [U87G U143C] — lower, 0.18
- UACGUAGGUGGUUUUCCCCUGAUAGUGCUAAGGGGGCCUGGAAGUUUGGACUGGGCAGAGCUCAACCCAGCGUGGCAAAGUGGCUGUGGCUAGACCGCCUCUCUGGAUUCCUCGUCACUCAGCAGGGCAUCUCUGAGAGAAAUGCC [A67C U96C] — lower, 0.12
- UACGUAGGUGGUUUUCCCCUGAUAGUGCUAAGGGGGCCUGGAAGUUUGGACUGGGCAGAGCGCAACACAGCGUGGCAAAGUGGGUGUGGCUAGACUGCCUCUCUGGAUUCCUCGUCACUCAGCAGGGCAUCUCUGAGAGAAAUGCC [U62G C84G] — lower, 0.49
- UACGUAGGUGGUUUUCCCUUGAUAGUGCUAAGGGGGCCUGGAAGUUUGGACUGGGCAGAGCUCAACACAGCGUGGCAAAGUGGCUGCGGCUAGACUGCCUCUCUGGAUUCCUCGUCACUCAGCAGGGCAUCUCUGAGAGAAAUGCC [C19U U87C] — lower, 0.06
- UACGUAGGUGGUUUUCCCCUGAUAGUGCUAAGGGGGCCUGGAAGUUUGGACUGGGCAGAACUCAACACAGCGAGGCAAAGUGGCUGUGGCUAGACUGCCUCUCUGGAUUCCUCGUCACUCAGCAGGGCAUCUCUGAGAGAAAUGCC [G60A U73A] — lower, 0.02
- UACGUAGGUGGUUUUCCCCUGAUAGUGCUAAGGGGGCCUGGAAGUUUGGACUGGGCAGGGCUCAACACAGCGUGGCAAAGUGGCUGUGGCUAGACUGCCUCUCUGGAUUCCUCGUCACUCAGCAGGGCAUCUGUGAGAGAAAUGCC [A59G C133G] — lower, 0.12
- UACGUAGGUGGUUUUCCCCUGAUAGUGCUAAGGGGGCCUGGAAGUUUGGACUGGGCAGAGCUCAACACAGCGUGGCAAAGUGGCUGUGGCUAGACUGCCUCUCCGGAUUCCUCGUCACGCAGCAGGGCAUCUCUGAGAGAAAUGCC [U104C U119G] — lower, 0
- UACGUAGGUGGUUUUCCCCUGAUAGUGCUAAGGGGGCCUGGAAGUUUGGACUGGGCAGAGCUCAACACAGCGUGGCAAAGUGGCUGUGGCUAGACUGCCUCUCUGGGUUCCUCGUCACUCAGCAUGGCAUCUCUGAGAGAAAUGCC [A107G G125U] — higher, 1.96
